Sequences and labels used below:
B1: KRT18 (parent)
chain: KSQDLAKIMADIRAQYDELARKNR
B2: SCARA5 (parent)
chain: VTEDLRLKDWEHSIALRNISLAKG

Here are results for 94 variants from the supplement of paper PMC10567573.
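Further: lentivirally expressed fusions sorted by FACS into six bins by GFP to DsRed ratio, PSI derived from sequencing read proportions per bin multiplied by bin number.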

The variants in one series derive from B1. In words: protein stability index of a GFP-peptide fusion (GPS, HEK-293T) (PSI 1-6); higher = more stable. As to conditions: c terminus: a fixed tail appended.
For KSIDLAKIMADIRAQYDELARKNR, the protein stability index worked out at 2.35.
On the same count and under the same terms, the result for KSRDLAKIMADIRAQYDELARKNR reads 2.57; that for KSDDLAKIMADIRAQYDELARKNR, 3.09.
Take KSHDLAKIMADIRAQYDELARKNR: the protein stability index came out at 2.13.
For KSPDLAKIMADIRAQYDELARKNR, the protein stability index came out at 2.75.
Regarding KSWDLAKIMADIRAQYDELARKNR, the protein stability index was 1.71.
For the variant KSNDLAKIMADIRAQYDELARKNR, the protein stability index was found to be 3.25.
Take KSYDLAKIMADIRAQYDELARKNR: the protein stability index amounted to 1.88.
With KSVDLAKIMADIRAQYDELARKNR, the protein stability index came out at 2.34.
Same read-out and setting: the result for KSGDLAKIMADIRAQYDELARKNR reads 2.72; that for KSCDLAKIMADIRAQYDELARKNR, 2.02; that for KSKDLAKIMADIRAQYDELARKNR, 2.37.
On the same count and under the same terms, the result for KSLDLAKIMADIRAQYDELARKNR reads 2.49; that for KSADLAKIMADIRAQYDELARKNR, 2.31.
KSFDLAKIMADIRAQYDELARKNR: the protein stability index came out at 2.46.
Regarding KSMDLAKIMADIRAQYDELARKNR, the protein stability index is 2.41.
Still for that read-out and setting: the result for KSTDLAKIMADIRAQYDELARKNR reads 2.76; that for KSEDLAKIMADIRAQYDELARKNR, 2.89.
In the case of KSSDLAKIMADIRAQYDELARKNR, the protein stability index is 2.69.
Same read-out and setting: the same measure for KMQDLAKIMADIRAQYDELARKNR: 2.04.
With KLQDLAKIMADIRAQYDELARKNR, the protein stability index amounted to 1.73.
With KTQDLAKIMADIRAQYDELARKNR, the protein stability index stood at 2.7.
The same measure, in the same setting: the result for KYQDLAKIMADIRAQYDELARKNR reads 2.04; that for KVQDLAKIMADIRAQYDELARKNR, 1.9.
KKQDLAKIMADIRAQYDELARKNR: the protein stability index was 3.06.
Turning to KFQDLAKIMADIRAQYDELARKNR, the protein stability index came to 1.84.
Turning to KCQDLAKIMADIRAQYDELARKNR, the protein stability index came to 2.14.
KHQDLAKIMADIRAQYDELARKNR: the protein stability index worked out at 2.63.
For KPQDLAKIMADIRAQYDELARKNR, the protein stability index worked out at 2.43.
Take KIQDLAKIMADIRAQYDELARKNR: the protein stability index worked out at 2.11.
In the case of KGQDLAKIMADIRAQYDELARKNR, the protein stability index was 2.59.
Consider KDQDLAKIMADIRAQYDELARKNR, for which the protein stability index was 2.85.
For the variant KEQDLAKIMADIRAQYDELARKNR, the protein stability index is 3.02.
Turning to KQQDLAKIMADIRAQYDELARKNR, the protein stability index was found to be 2.46.
The same measure, in the same setting: the same measure for KWQDLAKIMADIRAQYDELARKNR: 1.86; for KAQDLAKIMADIRAQYDELARKNR: 2.2.
As to KNQDLAKIMADIRAQYDELARKNR, the protein stability index turned out to be 2.41.
Take KRQDLAKIMADIRAQYDELARKNR: the protein stability index turned out to be 2.56.
With KSQLLAKIMADIRAQYDELARKNR, the protein stability index stood at 1.72.
Regarding KSQCLAKIMADIRAQYDELARKNR, the protein stability index worked out at 1.64.
As for KSQELAKIMADIRAQYDELARKNR, the protein stability index amounted to 2.5.
For KSQKLAKIMADIRAQYDELARKNR, the protein stability index is 1.98.
Turning to KSQILAKIMADIRAQYDELARKNR, the protein stability index was determined as 2.1.
As for KSQGLAKIMADIRAQYDELARKNR, the protein stability index was determined as 3.18.
As for KSQALAKIMADIRAQYDELARKNR, the protein stability index was found to be 2.13.
Same read-out and setting: the result for KSQHLAKIMADIRAQYDELARKNR reads 3.03.
Same read-out and setting: the result for KSQFLAKIMADIRAQYDELARKNR reads 2.25.
Take RSQDLAKIMADIRAQYDELARKNR: the protein stability index is 2.62.
As for VSQDLAKIMADIRAQYDELARKNR, the protein stability index worked out at 2.71.
Consider HSQDLAKIMADIRAQYDELARKNR, for which the protein stability index came to 2.58.
For QSQDLAKIMADIRAQYDELARKNR, the protein stability index amounted to 2.9.
In the case of MSQDLAKIMADIRAQYDELARKNR, the protein stability index was found to be 2.81.
For PSQDLAKIMADIRAQYDELARKNR, the protein stability index worked out at 3.03.
Regarding CSQDLAKIMADIRAQYDELARKNR, the protein stability index was determined as 2.51.
On the same count and under the same terms, the same measure for SSQDLAKIMADIRAQYDELARKNR: 2.58; for TSQDLAKIMADIRAQYDELARKNR: 2.58; for ISQDLAKIMADIRAQYDELARKNR: 2.91.
In the case of GSQDLAKIMADIRAQYDELARKNR, the protein stability index stood at 2.83.
As for DSQDLAKIMADIRAQYDELARKNR, the protein stability index is 2.05.
On to FSQDLAKIMADIRAQYDELARKNR, for which the protein stability index worked out at 3.1.
As for YSQDLAKIMADIRAQYDELARKNR, the protein stability index came out at 2.2.
NSQDLAKIMADIRAQYDELARKNR: the protein stability index was 2.6.
Take LSQDLAKIMADIRAQYDELARKNR: the protein stability index came out at 2.88.
For ESQDLAKIMADIRAQYDELARKNR, the protein stability index was 2.41.
Still for that read-out and setting: the same measure for ASQDLAKIMADIRAQYDELARKNR: 2.58; for WSQDLAKIMADIRAQYDELARKNR: 2.28.

In the next series the parent is B2. The series is described as above. As to conditions: c terminus: a fixed tail appended.
In the case of VTEDLRLKDWEHSIALRNIPLAKG, the protein stability index came out at 3.91.
Turning to VTEDLRLKDWEHSIALRNICLAKG, the protein stability index was determined as 3.21.
In the case of VTEDLRLKDWEHSIALRNINLAKG, the protein stability index was found to be 3.54.
For VTEDLRLKDWEHSIALRNIQLAKG, the protein stability index is 3.54.
As for VTEDLRLKDWEHSIALRNIYLAKG, the protein stability index amounted to 2.56.
VTEDLRLKDWEHSIALRNIFLAKG: the protein stability index was 3.17.
Take VTEDLRLKDWEHSIALRNIELAKG: the protein stability index came to 2.36.
Consider VTEDLRLKDWEHSIALRNITLAKG, for which the protein stability index is 2.86.
On the same count and under the same terms, the result for VTEDLRLKDWEHSIALRNIMLAKG reads 3.24; that for VTEDLRLKDWEHSIALRNILLAKG, 3.37; that for VTEDLRLKDWEHSIALRNIILAKG, 2.15.
For VTEDLRLKDWEHSIALRNIWLAKG, the protein stability index stood at 3.15.
On the same count and under the same terms, the same measure for VTEDLRLKDWEHSIALRNIKLAKG: 2.94; for VTEDLRLKDWEHSIALRNIGLAKG: 3.66.
Consider VTEDLRLKDWEHSIALRNIALAKG, for which the protein stability index stood at 3.81.
Take VTEDLRLKDWEHSIALRNIHLAKG: the protein stability index came out at 3.04.
Turning to VTEDLRLKDWEHSIALRNIRLAKG, the protein stability index was 3.23.
In the case of VTEDLRLKDWEHSIALRNIVLAKG, the protein stability index was 3.56.
Take VTEDLRLKDWEHSIALRNIDLAKG: the protein stability index was 3.67.
Consider VTEDLRLKDWEHSIALRNISLAAG, for which the protein stability index was determined as 3.04.
For VTEDLRLKDWEHSIALRNISLANG, the protein stability index came to 3.48.
On to VTEDLRLKDWEHSIALRNISLAVG, for which the protein stability index was 2.29.
Turning to VTEDLRLKDWEHSIALRNISLAFG, the protein stability index came out at 2.35.
The same measure, in the same setting: the result for VTEDLRLKDWEHSIALRNISLAEG reads 3.93; that for VTEDLRLKDWEHSIALRNISLAWG, 2.22.
With VTEDLRLKDWEHSIALRNISLAYG, the protein stability index stood at 1.64.
Turning to VTEDLRLKDWEHSIALRNISLAGG, the protein stability index was 3.14.
Still for that read-out and setting: the same measure for VTEDLRLKDWEHSIALRNISLAQG: 3.09.
